# Results published in article PMC2198845 (The Journal of Cell Biology, 2001).
# Target: the molecule itself
# Assay: cross-linking
protein,measurement,value
"endophilin NH2-terminal 125 amino acid fragment (domain or fragment, rat, UniProt O35179 1-125, looked up) MSVAGLKKQFHKATQKVSEKVGGAEGTKLDDDFKEMERKVDVTSRAVMEIMTKTIEYLQPNPASRAKLSMINTMSKIRGQEKGPGYPQAEALLAEAMLKFGRELGDDCNFGPALGEVGEAMRELS",stoichiometry N,2
